From patent US20240018242

Experiments:
[1] = molecular target: FH-AGO2 (Flag-HA-tagged wild type AGO2 expressed in MCF-7 cells) (UniProt Q9UKV8)
FH-AGO2-K726R = FH-AGO2-K726R (UniProt Q9UKV8)
Sequence of FH-AGO2-K726R (Q9UKV8 whole entry K726R): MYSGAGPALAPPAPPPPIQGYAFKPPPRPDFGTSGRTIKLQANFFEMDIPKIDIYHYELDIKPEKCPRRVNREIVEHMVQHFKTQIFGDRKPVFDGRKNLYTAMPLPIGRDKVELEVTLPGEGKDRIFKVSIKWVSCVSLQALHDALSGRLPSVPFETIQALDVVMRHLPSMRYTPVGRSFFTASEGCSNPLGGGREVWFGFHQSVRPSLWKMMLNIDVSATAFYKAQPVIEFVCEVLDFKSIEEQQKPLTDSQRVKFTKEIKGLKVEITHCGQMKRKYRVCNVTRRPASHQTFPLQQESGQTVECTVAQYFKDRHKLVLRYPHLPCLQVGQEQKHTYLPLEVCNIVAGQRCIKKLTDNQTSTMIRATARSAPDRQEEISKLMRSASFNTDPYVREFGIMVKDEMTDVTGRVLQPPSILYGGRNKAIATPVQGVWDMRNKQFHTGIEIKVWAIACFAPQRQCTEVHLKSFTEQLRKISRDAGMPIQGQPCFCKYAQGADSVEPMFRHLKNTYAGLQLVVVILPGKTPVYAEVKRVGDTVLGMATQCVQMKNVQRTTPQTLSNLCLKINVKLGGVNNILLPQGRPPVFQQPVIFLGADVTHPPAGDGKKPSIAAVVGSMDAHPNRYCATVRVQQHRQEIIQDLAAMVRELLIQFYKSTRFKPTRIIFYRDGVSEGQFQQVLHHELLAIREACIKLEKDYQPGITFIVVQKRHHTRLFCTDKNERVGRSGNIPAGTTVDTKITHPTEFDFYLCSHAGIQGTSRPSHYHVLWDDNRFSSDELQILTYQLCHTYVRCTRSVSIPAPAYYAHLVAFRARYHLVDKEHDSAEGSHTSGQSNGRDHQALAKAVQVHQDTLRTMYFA

Sequence of FH-AGO2 (Flag-HA-tagged wild type AGO2 expressed in MCF-7 cells) (Q9UKV8 whole entry): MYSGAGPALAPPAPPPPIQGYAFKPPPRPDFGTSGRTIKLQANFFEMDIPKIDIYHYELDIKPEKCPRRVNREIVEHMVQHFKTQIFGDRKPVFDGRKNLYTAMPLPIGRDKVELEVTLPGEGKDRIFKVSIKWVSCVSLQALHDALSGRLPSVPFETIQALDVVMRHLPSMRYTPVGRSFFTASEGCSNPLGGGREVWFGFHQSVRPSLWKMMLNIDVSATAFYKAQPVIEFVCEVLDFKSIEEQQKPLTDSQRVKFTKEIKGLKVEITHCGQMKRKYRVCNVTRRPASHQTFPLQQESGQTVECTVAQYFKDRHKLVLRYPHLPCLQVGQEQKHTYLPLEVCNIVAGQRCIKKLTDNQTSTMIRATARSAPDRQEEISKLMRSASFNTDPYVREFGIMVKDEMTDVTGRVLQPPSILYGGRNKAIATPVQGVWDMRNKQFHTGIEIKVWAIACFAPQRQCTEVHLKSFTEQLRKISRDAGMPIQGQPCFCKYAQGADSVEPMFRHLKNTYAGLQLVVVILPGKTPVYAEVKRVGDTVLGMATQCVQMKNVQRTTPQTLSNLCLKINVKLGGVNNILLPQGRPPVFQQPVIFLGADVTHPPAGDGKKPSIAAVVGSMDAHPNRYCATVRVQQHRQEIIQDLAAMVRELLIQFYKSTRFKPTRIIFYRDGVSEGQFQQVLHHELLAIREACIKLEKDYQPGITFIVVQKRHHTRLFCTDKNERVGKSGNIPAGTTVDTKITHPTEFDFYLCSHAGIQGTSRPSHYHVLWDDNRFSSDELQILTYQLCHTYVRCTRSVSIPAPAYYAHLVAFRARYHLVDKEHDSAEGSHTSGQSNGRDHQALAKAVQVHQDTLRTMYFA

Substance	K726me1 level on FH-AGO2 in in vitro demethylation assay (immunoblot) [1]	K726me1 level in in vitro demethylation assay (immunoblot) (FH-AGO2-K726R)
FH-LSD1 (Flag-HA-tagged wild type LSD1 expressed in MCF-7 cells)	FH-LSD1 but not FH-LSD1-K661A decreased K726mel level on FH-AGO2	had no observable effects on FH-AGO2-K726R
FH-LSD1-K661A (catalytically compromised LSD1)	FH-LSD1 but not FH-LSD1-K661A decreased K726mel level on FH-AGO2	–
